The values that follow come from the NTF2 design screens of Basanta et al. (2020).

The data set is described as follows: protease stability score; higher = more stable; yeast display proteolysis, trypsin and chymotrypsin.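 Also: log10 excess protease needed over predicted unfolded state with 0 meaning unfolded.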
The sequence “DDEIRRQVHRYLRALQRNDEKLASDLLDPNAKFVYGDKTVHGREQHKKELRKMKDQWEFSVDVKKVKVQGNKIKVTADIRVDVNGRPMSHRYVVIFHAHNGKIKNAEFRMDEKYYRDVKR” gave a protease stability score of 0.208.

In turn, “DDEIWSQIEHLLEIFKTGDEERYREQVDPNAKADVGDKKIHGRERIARHLYHLAKNMTIKREVDSVNIQGNEVSASFEVTVNINGNPIRFTVRVNYNFHNGRLQTFEIDVSEDLTKHMDS” had a protease stability score of 1.9.

Sequence “DDEKAKEMMKVWKSGDEEDLVRLADENVSVVVGDHRVRGREEFKKWLHRLSEQVDRWKVDSVHAHNGRIQIDAVYVVNGQEFRLTIHVTMRNGRIKTVRAQVTTEDDERKLKKVVS” had a protease stability score of 0.63.

The sequence “DDEKARQQVREFIRAMETGDEDSMVQQLDENAHVHIGDHVWRGREQARNAFKEFVKQFDRIEVKRVEYRNGDVVIDAVANVNGVRVRIIFKIHIHNGRIKNLRIEYRDEEEKKQLDG” had a protease stability score of 1.99.

As for “DDEKARRWLHTMRDVINRGDPDKWRKLVDENVRLEIGDKEYHGREDARKWMKELRDQVDEIHIKTISAHGDKIEVTMEYKHNGRTRRITVVARIRDGRIKMVQVRDS”, the protease stability score was determined as 1.8.

With “DDEKKAKSFVDDLRKILKTGDPEQMRDNADKDARLVIGDQTFHGREDAASKLVTLVKRFDHARFNVKSMTMHNGRIDVDMTFTLRVDGKNERHRVKITVEEHNGRLKMKEVHWS”, the protease stability score turned out to be 0.991.

“DDEKKARTLLKQLKEAFENNDEDRARQLMDKDVRLDIGDKTYHGREEAAEAWHRLVETVDHMDMKVRHIENRNGHMVVNADMVLHRDGRQKRLKVTFTARDDNGHAVLVHVSFD” gave a protease stability score of 1.45.

Sequence “DDEKLANEFQTKFRSVMETNDEENMRKLADKDARLNVGDDDVHGREQVARYLAEVLRRVDTFRVRYEDVDIRNGQVRVTMEIHNNHNGSDRTDRVHLQMEVTGDTASLKRITEG” displayed a protease stability score of 0.259.

Regarding “DDEKLAREFQEKLREALRSGDDKKMVELMDKDARVVVGDKEIQGREEIAKTWATKATQADHVEVHIRNLRVENGRVTVNVEVRLNNNGQDRTNNNTLQNEVHNGHIHMKRQKEN”, the protease stability score was -0.274.

Regarding “DDEKLTTVLKELMKAFEKGDNKKFVDLLDKDVTIDYGDKKVHGRDEATEVFHKIRRQVDHVQVSDMKFENGRASIRATLHFNGKNMEVTFEAVIKNGRIKHAQVEVRDPDELRKMES”, the protease stability score stood at 1.03.

Sequence “DDEKQAHRAFEEWERALRTGNEEDLKRLADENVQVQVGDKQLDGREEVVKWMLDQAERVDHIQIDIKHLRIQNGRVEVNIIIQNNHNGQNQTHTMVVVMRNHNGNLYISDVQRR” gave a protease stability score of 1.31.

The sequence “DDEKQHTIAKQLVEVLQQNDPDQQRDMVDENANIDIGDKTYQGQEDARKAMDELRRQIDHLTVTSFNVHNGRVEIRARARVNGTDVTVHIEAQLHNGRVKKMKIKYG” came in with a protease stability score of -0.196.

With “DDEKQVREVVTDFIQALEEGDEKRVRQLIDPNASADVGDRKYHGREQVAEMVREQMDQVDHIEFTLRKVEIQGEEVVVRVEVVLNHNGQEKQIHMTLIFVVKNGHLQLKEIHQD”, the protease stability score was determined as 1.37.

Sequence “DDEKRASKFAKKLVDAFKHGDPDRFSRMVDENVRFQVGDTQYHGREDAHNLMQELRDKVDHIHVRLTQLEVKGDKADVHMNLQYKHNGKNNDVRMRAVATDNNGRLLVTHFRIN” had a protease stability score of 1.26.

“DDEKREKILKTFVDLFMNGDEEDIQRMMDENARASVGDKTYHGQEQVNKALKEIRDQFDRVEVKHIHVSGDKFRINMVINVNGKHVHVEVEISVHNGRIHEISFDPEHLTKMRN” registered a protease stability score of 0.444.

The sequence “DDEKRKDILRKIKENWKRNDHDFFKDMADPNVRAKVGDKLLHGREELEKELREFKKRADHVEIKHVDVTGDNAEVEADIDINGQKRVMVFQVEVHNGKIKHIELDPDDQRKVQK” displayed a protease stability score of 0.145.

On to “DDEKTRDLLRKAMRAFITGDPDTLRHLFDKDARARYGDKEVRGREQIQHQLREIRSTVDHIDVKDMEVQGNHATLSLSLVVNGREVKVRVKIVVHNGRAQSVTMDPHDIRKLNS”, for which the protease stability score was 1.29.

In the case of “DDEKVAEQIMNEVLTAIKNNDPQEAADNMDKDARAEVGDNDLTGRERLSKWWVTMANRADHITAHVDSVDEQGDKIHVVWKYTADINGQQVSKDIKFVVVRQNGRVKIKRIKND”, the protease stability score was determined as 1.11.

“DDEKVKSFMKNVVRAWKHNNPDEMAKLADPNARAHVGDKEVHGRHQVKTMITEQLTRVDHVDIRHVHANGDKITIHATLNVNGRTRSVKIEIRFDNGKITDIRMDPDAVKEIKK” displayed a protease stability score of 0.199.

As for “DDEKVQKAAHNLIQAIKSGDEDRMRKLMDPNVRVVVGDKEVSGSDDAARFLRELRERVDHVEVKRVEAHNGRIKIDAVNRHNGHDHRFVLEAEVHNGTVKQIRIKEQ”, the protease stability score is 1.43.

“DDELEEQVKKWLENLKNNNEEELQKQMDPNAKMQYGDKEYHGMHDALKTLAQEDRELRYNVRIISINVQGDRVHITRRINRDHDGRPSQKKYKLNLRLHNGRNQHFREQEDG” registered a protease stability score of -0.102.

The sequence “DDELEKLITRWLEALDTNNPRQVKSNIDPNVHIEIGDKKIHGREQAMKDIHHRLERMRVEFDLKSLDSHGERASFRFRLHIRFNGRPIDIDAEVSVQVHNGKFKKMSQRISEEQAKQMSE” returned a protease stability score of 0.403.

“DDELHKLAEEFVTALQKGDPDRANSLFDPNAKFVVGDEVLHGREDFEKWLDELKHQMRIQFESVKIDKRPGRIIIDNVFRVHVNGKPDQIRIEIDIQVHNGKIKEVIYRMDPDKFREVMS” gave a protease stability score of 1.3.

Sequence “DDELKRIVHQLMEALKHGDNDQWRKNVDPNVSVKIGDKELHGREEFARQIQRIKRELHLEIDIHDVKVKNGRADLDMTETRSENGQPETNRLRISYVIDNGKFKSVTLNIKQ” yielded a protease stability score of 0.222.

“DDELQHQVERFLTNIEHGDPDKIQRQVDKDVNARVGDETLHGSDQLKDTWHDTQRQMRFSFHVTKYDAREGHVDITAHITMDRNGKPESRQVRVRFNINNGKLREVDMQLRG” showed a protease stability score of 1.04.

In turn, “DDELRHVAERFVQALDEGDPNELKEMADPNARMQVGDKYITGMETFVKHERKKMEKIRIEVVDFKANVNGDKVQVHFDVRFEVNGQPRRYSYVVIFQFRNGRISHVNVQVDPRQLKKNES” had a protease stability score of 1.04.

In the case of “DDELVRSAEHLFKVWQDGNPDEAKRYMDPNAELKVGDKTVHGRDDANRWVEQLQRELRYHFTINNVERQGNTVVIKATATEHHNGKPKTYSVDIEIEAQNGKVKLVIIRING”, the protease stability score is -0.09.

In turn, “DDEMIRVYREMQKALQDNDPERAKELMDPNAKLRYGDKVFHGREEFAKDMERRHHESRVQIRHLKVEDQGEKAVARFNEVNNSNGRPNSKSVSVELEAHNGKLVHVRAQDTK” displayed a protease stability score of -0.172.

Sequence “DDEMKKVVSRFVEAEKQGNPEDLKRNADPNVKVQVGDKTVNGRDKWATDLHKRRRDIDVEREYKSVHLTGDHLTMDVEAVYNVNGTPHKMRVTLRVVAHNGKIKKMHVQLSEEELRRLDR” came in with a protease stability score of 0.229.

“DDENMSAFERWLHAVETGNPQKVKEQMDENAKLDVGEKDVTGMDEIRRQLEKEMKRMRVTIQRYDLQVHNGQVVVRQTVVNKNDGQPRRRTNVVHVDIRNGRIQRIIQRDDG”: the protease stability score was found to be 0.42.

In the case of “DDENNKILEEYLKAEQTNDPDRAVELMRDDVRMQVGDHRVHGREEVRKRIHQIKDTMRVQIDDLRVTVKGESVVANLDAQVRINGQPVRFRASVRADFHNGKIVHHRVHISEEQQERLKK”, the protease stability score turned out to be 0.272.

On to “DDENQQHFAEKMATAVIKNDPDEIVRLADPNVQVQVGEKEVHGREEVHELMEELKDQADHVHLVSVHVSNGQVNIVVDVVVNGKRLRVTITVKFNNGKVRYIRVDPEFQRKMDK”, for which the protease stability score is -0.095.

With “DDENRHMAEEMMQIFKHGDHDRHRQLIDPNVKVKIGDKEYHGMEKLVQRHKEEVDQIRFEVKTVSVHNQGDKLKVEWRYVADFNGRPHDVRDDYTIDVRNGKVRSIDYNVDPRELETLLR”, the protease stability score was -0.128.

For the sequence “DDENRKRAEEWLQAVQEGNEHQVMELADPNVRFVIGDKTLHGREQLSEWVKRVHDQMRFSVEIKHVRVHGDKVLITVRHTANVNGKPFDDTLIIKVVINNGKFQRIELRVDPEKLKHLKT”, the protease stability score stood at 1.01.

Consider “DDENRRFAERLMKVWRTNNEEDARTLFDKDVRFEIGDKVLHGKEQYAQSVRDIKKEMRFDARVRSIDVRGEKVVVLYDVEVQHNGRPQTKQVIFIANVHNGRIKEARVEDTQ”, for which the protease stability score turned out to be 0.271.

In turn, “DDENRRRAETWFRNIQDNNPELIRHMFDEDARLEVGDKEIQGREHFEEQMKRDVEEMRLDLKVKSVEVRGNDVTVKAEAQDDRNGHPRNFTFRIRIRYHNGRVKHVHMDRQG” came in with a protease stability score of 0.092.

On to “DDENVEIAEKIVKAEQSGDEDHLRELADPNARFHVGDKHVSGMEKFLKDFQHEFEELRFSIKVTSVTQSNGKVHMTATATRHRNGRPDSFTANRRFLFHNGKAKEVSQDNRK”, for which the protease stability score was -0.352.

Sequence “DDENVKKFAKELLHVIKDNDEDRFRKLAPPNVEAQYGDKTIRGRESAATQFSRVATRIDHVRLEHMTVQGEHVVMKMEVDVNGRNKQLRIVFHVRNGKITSFSMDPEAQRVNSQ” had a protease stability score of 0.594.

As to “DDEQANEIISIMETGDPDKLSNMADENAKIVIGDTQIHGREDYERVATILYKQIDHHHFEHLTFTGDKVVIVWQYVVNGKQVRQRVKFDVHNGRLKHMRMEFTDPEELKIVEEILS”, the protease stability score worked out at 1.59.

Take “DDEQDAREFVKKFVDVMRENNPRELVKMADPNVKVDVGDHRLNGREDLERKRKREADRADHIDVKVTKLHVNGDTVQAHFSFTIRHDGRNERKSETIIARKHNGRVKIKSIKNS”: the protease stability score was -0.13.

In turn, “DDEQDKKAEKLVNTGNFHDMANNADPNARIVVGDKRFHGREQFHTFMESLQTTIDHLQIKDIKRRPNHVEADVVAEVNGRRITFVILMVVHNGRIKNVEFKFRDEEDERVMEQILR” yielded a protease stability score of 0.947.

Consider “DDEQDRDFVQTMREAIDRGDFKKIARMADKDVKVVIGDKNVTGRETLTHLLKDFVDKFDHIRVRHIDAHNGSVDIDMTADHNGDKRQYRIRVNVSNGQVKEFQLKQT”, for which the protease stability score was determined as 0.453.

In turn, “DDEQINEFVKVMKTNDFKRLMDQADPNVSVSIGNFTVKGDKQAQKAARDLEEQADHIQIDSLTAHDGRLDVTLQMVFNGRDIRMSIKAEAHNGRLKSMKFQATSEEIEKILDEVLR” registered a protease stability score of -0.142.

In turn, “DDEQLKKLAQKFADNMQSGNEEEFDRMAPPEVRVQIGDKTYKGRDKVKEMMKRFRTTADHVRIESFEAHNGQITFNVIIQVNGKSHRIRLRIQARNGQVKQFDLNPDDQRKVEK” showed a protease stability score of 0.18.

Consider “DDEQRKDLAHDFLHAWKKGDEKLFDNLVDENVSAQYGDKTYHGRESISTFVRNYKKRADHFRVHDMQLSNGSVRMDVEAEVNGVDVRVTFHVFFHNGRVKSLQQDFTDEDVKRRHES”, for which the protease stability score is 0.604.

The sequence “DDEREREFEHFLRVVEEGNPEELKKLLDPNVRIEYGDKVIHGREEYAKRVHETVKELRFSMSIHDVKVNGDTVEVDATSSWTHNGQPNKDQNVLVIRFHNGKFKEIRHDKDR” came in with a protease stability score of 0.607.

For “DDERITELVTRFEKALQRGDNDEMERLMDPNARVRYGDKEYHGREDIKRALKEEKKRVDHFRLESVRWKNGHVEIFMKFTVNGRTEHRVFDIQLHNGRMKEMELTTS”, the protease stability score is 1.15.
